# From article doi:10.1101/2022.04.08.487625
# B1: Dig-RD hybrid (25 bp RNA/DNA) (DNA:RNA)
# DNA: GATTCATACCTGTCGTGCCAGCTGC
# RNA: GCAGCUGGCACGACAGGUAUGAAUC
# B2: unlabeled RD hybrid (25 bp RNA/DNA) (DNA:RNA)
# DNA: GATTCATACCTGTCGTGCCAGCTGC
# RNA: GCAGCUGGCACGACAGGUAUGAAUC
# Experiments:
# [1] = target: T1, Flag-mut-RNase HEC (catalytically dead RNase HI) (E. coli, UniProt P0A7Y4 1-155, D10R;E48R); assay: EMSA
# T1 sequence: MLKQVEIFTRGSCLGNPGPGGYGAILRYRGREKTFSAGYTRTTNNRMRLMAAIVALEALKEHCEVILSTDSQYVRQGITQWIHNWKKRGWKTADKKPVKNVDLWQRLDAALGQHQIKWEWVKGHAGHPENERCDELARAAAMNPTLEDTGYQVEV
# [2] = target: T1, Flag-mut-RNase HEC (catalytically dead …); assay: competition
Binder,binding result [1],binding result [2]
B1,binds,–
B2,–,binds
